Experimental data reported in the DeepSol protein solubility set.

Experiment: soluble on expression in E. coli; label from the status in PepcDB or PDB records

Row | Sequence | soluble on expression in E. coli
1 | MGSSHHHHHHGGTGENLYFQGGSGRDREVVECLLGMEQWLRELNRPLASAGVGGSVDVGASSSLLSGFPPCMEGDALRSAYRSALSELRLLVLGVLNTMPWWRVVETVAGNPPAAQTGGARTASAGGGDNSSSEAGAARVAARHAGGWDRSAAALHVITRWHARLQIAFERVCLVLIDQSQQTVRGVLEVLLKPCQLRPPVRDGARRSIPSDSFIRVLNAVATKYSPVYVVELLEGCIADFMPRRRWAERRHHVACTAVLLYLALEGHTPAYHPQLGNSYSLQRAVRLLTSLRSRRADGRCALSGSPWLLPHATGSYSLTLP | not soluble
2 | MNPKEQSSYLYEQYDDALGEQLKPITSQYVLQDLNKNSSKQKAQVVQKVDSEYVLRDLRNQADQNQNFSRDAPNRPFLTGTPVNAKEIRSQIESLDNAIVIPQIINGKVFFTTHGDADARTAVEGSVSNPNLNETNVGASKPEGVDLSKMKFTFAQLVALLGPSTCQRLEREFVKKNRLSDAEMSQLRTARESISELNLATGRSTDTLRTAQSVEPNLLSIRTANSLEPNLLSVYSARSPGVFTKKEGMLTAQSPEPNLLSVRTANSLEPNLLSVKPAKELTTISNLKAQSPGLLTAQSAEPNLLSTRTARSSSNTSLIDTESKDVQTCIEIQSPTTGVLTAQSIATPSGSCQSVFTAKEIESIRSSQDVLTAVEILTDMSRSSQDVRTALEISE | not soluble
3 | SLTLNDKYPFTDEDQAIINSYKAVVDGVSALIGEHCEIVLHSLENIEHSAICIANGHNTNRQVGSPITDLALRSLRNMQSESVSKPYFTRAKGSVLMKSVTIAIRNKTQRIIGLLCININLDVPVSQFLQCFMLTEHTNETSSVNFANSVEDLVAQTIEKTIEEVNADRAVANNTKNRQIVLSLYEKGIFDIKDAINLVAERLDISRHTVYLYIRQIKQEQE | soluble
4 | MRLWRICFKDPEPFIELYFHKVFREDYTLLQYSETGEAVAHLQMLPYQLRIFGTSFSAGYISGACTHPDHRGKGIMRTMMAEALSAIYDRGDICSFLIPAETWLYDFYSRSGGYAPAFGRKQFLYRPNSIPQKFPSGYACTIGQGDYSFLSAEEHTDIRLAVQHTLGQWQTALKDFSLAGGNVAMLQDSAGKTVSQACFVPRENSLDIKLLVGDAEATFILVDHLLRSLDCDHASILAHSGSAPYGMLRILRPIPILEAFAQYHPAEGYSFAYSDPLFSQHNGTYHISKGRIVFSNNVQPENSLLPHHTPDSLVKDLFSPFPSALFLMLD | not soluble
5 | MALARANSPQEALLWALNDLEENSFKTLKFHLRDVTQFHLARGELESLSQVDLASKLISMYGAQEAVRVVSRSLLAMNLMELVDYLNQVCLNDYREIYREHV | soluble
6 | MKQEVEKWRPFKHPDGDVRDLSFLDAHQVIYVQHHEDKEPLEYRFWVTYSLHCFTKDYEHQTNEEKLSLMYHAPKESRPFCQHRYNLARTHLKRTILALPESNVIHAGYGSYAVIEVDLDGGDKAFYFVVFRAFSEIFHHCLKLIEK | not soluble
7 | MEEVINYRSDLFRLSDNLETLHIEEKFGIKCDLTCKIEENMTTFEFQFDLRDFKNNGFKQLTAEITIRPDPENPIFELIHRKLDILDIDEHRVNFSVENKNTQSLAETRAILELILTPIREKFSYREMFMPSQKTDAILMIGGEKLHVNKAFLSFHSDFFHELFSASSTESEIPEIPIRDVSAEDMGLLLSTIYPDLVFPTDKTAAKLLTLANRFQMRAVTAQVEHHLLWHSDIEIEKLILMANTFGMKDLLKECTCDGGNKTPGEVPISVQ | not soluble
8 | GPGSGSDERVVALKDITLAESKHSNAATTKQGASTTNCLQRSNLPPPFAPVRRGEFVMIRGPSGGGKTTLLNIIGSIDSCTEGNIELNGRIIDKDTKESVLADIRLKNIGFVFQTFNLIATMTAAENVELPMTLLGTMSTKAMRLRSRQLLTLVGLRNRINHLPSELSGGEQQRVTIARSLANNPSILLLDEPTGDLDTANTIEVMDLLMRINRRTKTTCIMVTHNPDIECYADRILYVSDGRFAKEVFNALPMCLDLENYTEYLAAKERAITGFAGVGDVEDDSEPRATAAMAECIG | not soluble
9 | MAHHHHHHMWYSNLFVAKLPRHLCDGDLLQIFSNFNPLGAKIMLDPSTGNSKGFGFVLFDKEEEGRTAYERLNRKLVRVCNSSFNLLIYPSQHNGKAVTLPSRAVYIRNIPTTMGEREVQNFLSNLAPLEYCAMRGDHHGNPVWVVYAEFDTPQNAQRVLDKLHGNSNHFGGPPIMVKYADTDEAKRERRRRREEGRLAPGPALKGACLFPPPRPGVVSLNQTQVSQSATETSPSCSPAAHHVTKTKMVAPMVEVEPRAQPLYFSTSPVTAMPPLLPVDMSYDGAAATVPLQTADCPAANGVLVLGNGQQVFLTPNAVNLHPTKFNAPPTALLVPAVDTTLVPLPPQRTLVYGPW | not soluble
10 | MDMLNTLRDTLSSVQAELSTGVEKLRMNVSANIVAQQKVSTESVNEILNTSAGNELLQNFQNLITEVEENGAEGGRLANLCSTRMGRCQQMCKEKADAVMEIDEFLRNSVEFDKKIREINAQISKLTRFCNQTEQAMTYLEALCEVAHTEGEVDLIRQQAKSAATIVQIECESPSVLTSALRSRPEDAVKAQQEEVMLEEFLSSKNMQLP | not soluble
11 | MTLSIIVAHDKQRVIGYQNQLPWHLPNDLKHIKQLTTGNTLVMARKTFESIGKPLPNRRNVVLTNQASFHHEGVDVINSLDEIKELSGHVFIFGGQTLYEAMIDQVDDMYITVIDGKFQGDTFFPPYTFEDWEVESSVEGQLDEKNTIPHTFLHLVRRKGK | soluble
12 | MAHHHHHHMGSTGRKAVDEINHWIAYIDCALSHPHPLPKGKHVFRSDLSTVPEVRDIYDCLYKLYAEESASASFREPVNALELGVFNYYEVVTEPMSLRTVLDRIAEGGHYSQASQVLADVEKIWSNCEKYNGADSALVKEAKKCQGILTRLRERLAEEQPAPNAELDKIISAFESADESVLGELEAYFRREDPSLIISNGDVDLTALRVKHLKAMKAILERAMNGGGGRG | not soluble
13 | MGSDKIHHHHHHVRNYTYRYLNTIALPMETVRLISRINEYKGKQDLYKQQAPQVLDTLRDVAVIQSTKASNAIEGIVVTESRLHTIMSKSADPADRSEAEIAGYRDVLNLIHASARDIPINANVLLQLHKELYKFVPVEGGRWKNVDNEISESFPDGTRRTRFVPVPAFETPASVQALCDSLRERRQQEDVDPLILTSLFVLDFLSIHPFNDGNGRMSRLLTLLLLYQEGFEVGRYISLEKIVESRKEDYYESLRLSSIHWHQNQQDPFPWVNYLLSTILAAYKELEDRVGLITTGNQNKAGRIRQFVESRITPFTKADVRNACPDVSEATINRLLRELRDEGLIKPSGRGRGAKWIKR | not soluble
14 | MSLKLYKEIINLIDNHQATMVEQLHQFCEINSGTTNLTGLAIMAETLCSAFKPIADTTELITLPPLSVIDMTGNTVMQSCGDVLFISKRPHLKRRILLSGHMDTVYSASNPFQKLSYLDANQINGPGVADMKGGLIVILHALAAFENTRFAEDMGWDVLINSDEEIGSPTSGSLFNKLAHRYQAALVYEPAMTPNGTLAKNRKGSGKLTLVATGRAAHAGRAFDEGRNAICYLAEAITAVHALNGQKNGVTINVGKIAGGEALNVVPDKAVAQLDIRISLPEDEIWVRNELNKIIKQLERPDYSLNVHGTFGRPVKRICAGTERLFHRIQKIGEALGLTIDWKDSGGCCDGNNLAHYGLPVLDTLGVRGGNIHSSDEYILLDSLSERAALSALLLIDLAQGGLEDLIKEGHHHHHH | soluble
15 | GANPTTAETLDATRRVDDATVAIRCAINNLIVELIRGTGSYNRSSFESSSGLVWTSGPAGEGSYSITTPSQFVFLSSAWADPIELINLCTNALGNQFQTQQARTVVQRQFSEVWKPSPQVTVRFPDSDFKVYRYNAVLDPLVTALLGAFDTRNRIIEVENQ | soluble
16 | MITEKRHELILTELSKQDFLTLQELIERTGCSASTIRRDLSKLQKFGKLKRVHGGATLNQSSALEPNLADKRSTNLREKQEIGRLAASQIENRDCVFLDAGSTTLEMIPYIKASDIIVVTNGLTHVEELLKHGIRTLIIGGEVKSTTFATVGASALETLRRYRFDKVFLGMNGIDLKYGLTTPDEQEAIIKHHAMQLGTQVYVLIDHDKYEKVYFAHVPLEEGVSIITSKKAQSLKQFHLFAGQYNFIGGTLLEHHHHHH | soluble
17 | SLEGGDTLEGSMAQLKKGLESGTVLIQFEQLYRKKPGLAITFAKLPQNLDKNRYKDVLPYDTTRVLLQGNEDYINASYVNMEIPAANLVNKYIATQGPLPHTCAQFWQVVWDQKLSLIVMLTTLTERGRTKCHQYWPDPPDVMNHGGFHIQCQSEDCTIAYVSREMLVTNTQTGEEHTVTHLQYVAWPDHGVPDDSSDFLEFVNYVRSLRVDSEPLLVHCSAGIGRTGVLVTMETAMCLTERNLPIYPLDIVRKMRDQRAMMVQTSSQYKFVCEAILRVYEEGLVQMLDPS | soluble
18 | MSLAKITGGYTATGSAADTMNALAVDDNQSSSGYDRDSFGFRTTDVDGNGCDVRDDVLARDLTDITYKYAGSCVVESGTLADPYTAQTIHFVRGRATSAKVQIDHVVALENAWQSGARDWSTAKRHEFGNDPYNLMAVDGPANQEKGSASAAYWMPTNADYRCDYVARQIGVKDKYQLTVTSQEKDAMLAVLHTCPGQAVPADEEGHHHHHH | soluble
19 | MRWVKAGELPMEAAYGATVSLPDRLIFIGGSNSSDRFSSVLSFSFDCMKDSGLICETLPPLPHAVDNMSATLLGDTLYVLGGNRNGIPSSSMFSLCLDNYSAGWTEVPFPGRPRVQPVCSSLLGKLYVFGGFTSGGDASVSTDGLCYHPESGQWQVVKAPLTTKGEPLTLTGGASVSYGDVLLICAGGVNRDIFEDAISARYQMVRESEYLLQPIEWYRFNDQLLAYNVRSGEWIRIGVPSPMLARAGSSLVVFGDILFYIGGELKPGVLEHHHHHH | not soluble
20 | MGSDKIHHHHHHMLDPSLLGHRFRRRPWAMFEVLTPLHIGNGNELTPVDFYPLGDRIIVLDTEKLINDLLRLGVEVEELLDFLRNPPGSLYLWRGYLEKLHLDPRNYARYSLRIRGELGRESSRIKEFIKIKGKPYIPGTSLKGAIRTAVLYKVLKDCGDVPTVVEALGKYGKTTGNIIRAITHPGNQDLLDYYLFYLGRGNVRGKQADDILEAIVFGFEAERRFRYEPKRDPMKALIVRDSRLIPLDNLSVYEVRVVGWGSSIPIWVEALDPGTRFEAEVKVDRELLRIGSDYFNGLLWHCLAGEDFEEFVWKAVEEFYGELAKLDNVKERDVIRLGWGSGWISMTVGILLMRKRGWERVRRKLGLGKNPHTNKIVERFPKTKRLANGQPMGWIKI | not soluble
21 | MSVTYDDSVGVEVSSDSFWEVGNYKRTVKRIDDGHRLCSDLMNCLHERARIEKAYAQQLTEWARRWRQLVEKGPQYGTVEKAWMAFMSEAERVSELHLEVKASLMNDDFEKIKNWQKEAFHKQMMGGFKETKEAEDGFRKAQKPWAKKLKEVEAAKKAHHAACKEEKLAISREANSKADPSLNPEQLKKLQDKIEKCKQDVLKTKEKYEKSLKELDQGTPQYMENMEQVFEQCQQFEEKRLRFFREVLLEVQKHLDLSNVAGYKAIYHDLEQSIRAADAVEDLRWFRANHGPGMAMNWPQFEEWSADLNRTLSRREKKKATDGVTLTGINQTGDQSLPSKPSSTLNVPSNPAQSAQSQSSYNPFEDEDDTGSTVSEKDDTKAKNVSSYEKTQSYPTDWSDDESNNPFSSTDANGDSNPFDDDATSGTEVRVRALYDYEGQEHDELSFKAGDELTKMEDEDEQGWCKGRLDNGQVGLYPANYVEAIQ | soluble
22 | MSIPKQLMIGSVPYEVEVVKGWIDEKENGEVRIAEVTYHEQQIKISDNVAKHEGQMKNVLHEAIHAMLYEYGLDRLNKEVNVNALTTVFFDFIKNNIRGGISSFVGYQYLLLKCPEKTNVEFYDSDTDPATLRFKKETDELSFINTAAELVETINQHPPEVDVSALGVAMAKAEVHKAVDLGVAHEQIQESAVKMTTDKQTRKLPIVDVNRSSFPMEEIAKITKKEETDPIHWKTGIKYDDEGTPRYRTRYECCMCGNRGNQYEYEENKFTKCHKCNAKLKIVQATKNGFPERDAFGNFYVANDEYSVILDGE | not soluble
